Assay results taken from patent US20260183437A1, “VHH ANTIBODY CONJUGATES WITH HETEROARYL CHELATORS” (ABDERA THERAPEUTICS INC., priority 2022, published 2026).

Columns and labels:
hFcRn = molecular target: T1, hFcRn (Homo sapiens, UniProt P55899); assay: FcRn affinity by biolayer interferometry (Octet RED96e), pH 6.0; details: pH 6.0, 2:1 binding model
T1 construct: purchased Sino Biological CT071-H27H-B
Method: FcRn affinity of VHH-Fc can generally be used to predict the half-life of antibody serum clearance. (See, e.g., Datta-Mannan A et al. “FcRn affinity-pharmacokinetic relationship of five human IgG4 antibodies engineered for improved in vitro FcRn binding properties in cynomolgus monkeys.” Drug Metab Dispos. 2012 August; 40(8):1545-55). Briefly, 10 nM of biotinylated hFcRn (Sino Biological, Cat #: CT071-H27H-B) was captured with the SA biosensor using Octet RED96e (Fortebio). The hFcRN coated biosensor was dipped into the sample solutions in sodium phosphate buffer (100 mM Na2HPO4, 150 mM NaCl w/ 0.05% Tween-20, pH 6.0) with serial concentrations of tested antibodies and the association measured. The dissociation was measured by dipping the biosensors into sodium phosphate buffer without antibody. The KD values were determined using Octet Data Analysis HT 11.0 software. 2:1 (Heterogeneous Ligand) binding model was used in analysis. […] Changes in FcRn affinity were consistent across targets. Constructs with Fc Effector mutation only have no impact on FcRn affinity.

[1] = Pharmacokinetics of VHH-Fc variants in Tg32 (humanized FcRn) mice; assay type: in vivo; details: IV 3 mg/kg, HER2 VHH-Fc study (Table 6)
Method: Twenty eight (28) 8 week old male B6. Cg-Fcgrt^tm1Der Tg(FCGRT)32Dcr/DcrJ (Tg32 hom, JAX stock #014565) mice were distributed into 7 groups with 4 mice per group as outlined in the table. […] (See, e.g., Avery L B et al. “Utility of a human FcRn transgenic mouse model in drug discovery for early assessment and prediction of human pharmacokinetics of monoclonal antibodies.” MAbs. 2016 August-September; 8(6):1064-78). On Day 0, body weights were measured and test articles were IV administered to all mice at 3 mg/kg and 5 mL/kg. 25 μL blood samples were collected from each mouse at time intervals. The blood samples were collected into 1 μL K3EDTA, processed to plasma, diluted 1/10 in 50% glycerol in PBS, transferred into specialized 96 well storage plates, and stored at −20° C. All plasma samples were assessed via a hIgG ELISA chosen for its high sensitivity for all seven test articles.

BT-474 tumor = assay: Biodistribution of ^111In radiolabeled VHH-Fcs, SPECT/CT imaging; assay type: in vivo, mice; details: labeled with ^111In, compared with H101
Method: The objective of this study was to observe the biodistribution of ^111In radiolabeled SPECT/CT imaging across select test articles in BT-474 tumor (breast cancer cells) bearing nude mice. The following articles were tested at a CAR of about 4: ^111In-H101-4-1, ^111In-H1014-2, ^111In-H105-4-2, ^111In-H107-4-2, and ^111In-H108-4-2. FIGS. 9A, 9B, and 9C show tissue accumulation over time for ^111In-H101-SL, ^111In-H101-4-2, and ^111In-H108-4-2. […] FIGS. 10A, 10B, and 10C show tumor:tissue ratios. In each case, the tumor:tissue ratios were greater than 5, indicating increased tumor accumulation and better profiles used for determining safety (e.g., as compared lower tumor:tissue ratios). […] In each case, the VHH-Fc variants show advantageous targeting of tumor tissue.

human insulin = molecular target: T2, human insulin (Homo sapiens, UniProt P01308); assay: Polyreactivity ELISA; assay type: binding; details: 10 μg/mL VHH-Fc; signal normalized to non-coated well
T2 construct: 5 μg/mL of human insulin (SigmaAlrich, Cat #: I9278); purchased SigmaAlrich I9278
Method: Polyreactivity of VHH-Fcs against negatively charged biomolecules was determined by ELISA (As in Avery et al., “Establishing in vitro in vivo correlations to screen monoclonal antibodies for physicochemical properties related to favorable human pharmacokinetics.” MAbs. 2018 February/March; 10(2):244-255). Briefly, ELISA plate was coated with 5 μg/mL of human insulin (SigmaAlrich, Cat #: I9278) and 10 μg/mL of double stranded DNA (SigmaAlrich, Cat #: D1626-250MG) overnight. The plate was blocked with ELISA buffer (PBS, 1 mM EDTA, 0.05% Tween-20, pH 7.4). 10 μg/mL of test VHH-Fcs was loaded onto the plates in quadruplicates and incubated for 2 hours. Goat anti-human Fc(0.01 ug/ml) conjugated with HRP was then added and the plate incubated for 1 hour. The signal was developed with TMB and A450 absorbance was measured with Synergy Neo2 plate reader. The signal was normalized with the signal of non-coated well for each antibody tested.

FcγRI = molecular target: T3, FcγRI (Homo sapiens, UniProt P12314); assay: FcγR affinity by biolayer interferometry (Octet Red96e); assay type: binding
T3 construct: purchased Acro Biosystems
Method: (§1) VHH-Fcs were also tested for affinity to FcγRs by biolayer interferometry using the Octet Red96e platform. Each cycle is performed with orbital shake speed of 1,000 rpm. Streptavidin (SA) biosensors (Sartorius 18-5019) were rehydrated for 10 mins using kinetics buffer (PBS+0.1% BSA+0.02% Tween-20). Biotinylated-FcγRs (Acro Biosystems) were then loaded for 40-100 s onto SA biosensors at concentrations ranging between 1-5 μg/mL diluted in PBS. VHH-Fcs were serially diluted 1:2 in sample buffer (PBS+0.02% Tween-20) with starting concentrations ranging between 5000 nM to 37.5 nM. Loaded biosensors were then associated with VHH-Fcs for 60-120 s. VHH-Fc dissociation was measured for 30-900 s in sample buffer. Bound VHH-Fcs were then removed using 3 cycles of 5 s regeneration buffer (150 mM NaCl, 300 mM Sodium Citrate) and 5 s sample buffer. The data was analyzed either using a globally-fitted 1:1 Langmuir binding model (FcγRI) or steady state analysis (Octet software version HT v11.1).

FcγRIIb/c = molecular target: T4, FcγRIIb/c (Homo sapiens, UniProt P31994); assay: as above; assay type: binding
T4 construct: purchased Acro Biosystems
T4 sequence (P31994 43-310): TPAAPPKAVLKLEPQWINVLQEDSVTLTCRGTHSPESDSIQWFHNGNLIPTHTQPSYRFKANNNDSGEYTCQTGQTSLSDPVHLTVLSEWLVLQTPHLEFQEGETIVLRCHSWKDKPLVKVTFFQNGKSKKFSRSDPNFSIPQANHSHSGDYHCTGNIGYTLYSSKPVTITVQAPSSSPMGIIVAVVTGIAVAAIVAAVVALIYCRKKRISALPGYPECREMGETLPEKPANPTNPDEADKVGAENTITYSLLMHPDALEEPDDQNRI
Method: as §1

FcγRIIa (R167) = molecular target: T5, FcγRIIa (R167) (Homo sapiens, UniProt P12318, H167R); assay: as above; assay type: binding
T5 construct: purchased Acro Biosystems
T5 sequence (P12318 36-218 H167R limits assumed): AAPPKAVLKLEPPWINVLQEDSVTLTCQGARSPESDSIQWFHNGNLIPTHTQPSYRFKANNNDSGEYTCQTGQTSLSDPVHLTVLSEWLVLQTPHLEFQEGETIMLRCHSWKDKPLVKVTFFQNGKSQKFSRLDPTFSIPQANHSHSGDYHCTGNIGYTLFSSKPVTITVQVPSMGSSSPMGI
Method: as §1

T2 sequence (P01308 25-54 limits assumed): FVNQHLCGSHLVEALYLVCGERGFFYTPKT
T2 sequence (P01308 90-110 limits assumed): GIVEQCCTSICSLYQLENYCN
T3 sequence (P12314 16-374): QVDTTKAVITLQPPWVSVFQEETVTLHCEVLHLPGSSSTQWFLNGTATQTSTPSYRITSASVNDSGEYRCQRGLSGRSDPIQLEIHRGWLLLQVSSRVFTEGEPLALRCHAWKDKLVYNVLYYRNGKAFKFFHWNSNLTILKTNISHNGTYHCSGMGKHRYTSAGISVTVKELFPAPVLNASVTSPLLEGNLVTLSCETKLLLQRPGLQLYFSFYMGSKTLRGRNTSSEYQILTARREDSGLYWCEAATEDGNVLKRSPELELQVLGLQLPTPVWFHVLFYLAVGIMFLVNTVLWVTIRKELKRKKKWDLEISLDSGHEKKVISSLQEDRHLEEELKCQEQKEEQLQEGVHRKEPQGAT

Substance | KD (nM) to FcRn (hFcRn) | Polyreactivity Assay Score, Insulin (human insulin) | Kd (hFcRn) [nM] | Kd (FcγRI) [nM] | FcγRIIb/c nM KD (FcγRIIb/c) | Kd (FcγRIIa (R167)) [nM] | Clearance [1] [mL/day] | Cmax [1] [µg/mL] | Terminal Half-Life [1] [h] | Whole body clearance (BT-474 tumor)
H105: anti-HER2 VHH-Fc, FcRn mutant I253A [Compound H105] | Weak | 1.207 | – | – | – | – | 152.1 | 63.9 | 26.9 | increased clearance
H106: anti-HER2 VHH-Fc, FcRn mutant S254A [Compound H106] | – | 1.321 | 13 | – | – | – | 19.8 | 53.5 | 170 | –
H107: anti-HER2 VHH-Fc, FcRn mutant H310A [Compound H107] | No binding | 1.306 | – | – | – | – | 304.4 | 62.4 | 9.84 | increased clearance
H108: anti-HER2 VHH-Fc, FcRn mutant H435Q [Compound H108] | Weak | 1.420 | – | – | – | – | 117.5 | 46.6 | 37.7 | increased clearance
H109: anti-HER2 VHH-Fc, FcRn mutant Y463A (as printed) [Compound H109] | – | 1.244 | 13 | – | – | – | 18.2 | 52.2 | 166 | –
H133: anti-HER2 VHH-Fc, FcRn wt, Fc effector mutant AEASS [Compound H133] | – | – | 2.1 | 1 | weak | 2300 | – | – | – | –

The next lines start with results.

KD (nM) to FcRn (hFcRn) | Polyreactivity Assay Score, Insulin (human insulin) | Kd (hFcRn) [nM] | Kd (FcγRI) [nM] | FcγRIIb/c nM KD (FcγRIIb/c) | Kd (FcγRIIa (R167)) [nM] | Substance | Clearance [1] [mL/day] | Cmax [1] [µg/mL] | Terminal Half-Life [1] [h] | Whole body clearance (BT-474 tumor)
No binding | – | – | – | weak | 1200 | H135: anti-HER2 VHH-Fc, H310A, Fc effector mutant AEASS [Compound H135] | – | – | – | –
Weak | – | – | – | weak | 1200 | H137: anti-HER2 VHH-Fc, H435Q, Fc effector mutant AEASS [Compound H137] | – | – | – | –
